Measured values reported in patent publication US20160185832A1 (University of Pennsylvania, published 2016).

Experiments:
[1] = biological target: microtubule network of cultured human cells (hTERT-RPE1, 293T) (human, UniProt P68363 1-451; P07437 1-444); test: cell-based or functional assay
[2] = biological target: T1, pure, pre-polymerized, taxol-stabilized microtubules of bovine tubulin (Cytoskeleton) (bovine, UniProt P81947 1-451; Q6B856 1-445, limits assumed); test: in vitro microtubule co-sedimentation, percent of construct in the microtubule pellet (FIG. 4D)
T1 construct: Polymer of alpha/beta tubulin dimers, polymerized with GTP and stabilized with 10 µM taxol; also called MT; MTs
Description: Crude TNT T7 reaction products were diluted 1:1 in BRB80 supplemented with 1 mM GTP and 10 μM taxol. The diluted products were then incubated at 30° C. for 30 minutes in either the presence or absence of pure, pre-polymerized microtubules. Reactions were then centrifuged through a 40% sucrose cushion at 48,000×g for 30 minutes, the supernatant was collected, and the pellet washed once with warm BRB80 and resuspended in 1×SDS PAGE sample buffer. Both fractions were subjected to SDS-PAGE and transferred to nitrocellulose. The presence of tubulin in the pellets was confirmed by Ponceau staining, and GFP-tagged CEP290 constructs were detected by immunoblotting.

Sequence of microtubule network of cultured human cells (hTERT-RPE1, 293T) (P68363 whole entry, chain 1 of 2): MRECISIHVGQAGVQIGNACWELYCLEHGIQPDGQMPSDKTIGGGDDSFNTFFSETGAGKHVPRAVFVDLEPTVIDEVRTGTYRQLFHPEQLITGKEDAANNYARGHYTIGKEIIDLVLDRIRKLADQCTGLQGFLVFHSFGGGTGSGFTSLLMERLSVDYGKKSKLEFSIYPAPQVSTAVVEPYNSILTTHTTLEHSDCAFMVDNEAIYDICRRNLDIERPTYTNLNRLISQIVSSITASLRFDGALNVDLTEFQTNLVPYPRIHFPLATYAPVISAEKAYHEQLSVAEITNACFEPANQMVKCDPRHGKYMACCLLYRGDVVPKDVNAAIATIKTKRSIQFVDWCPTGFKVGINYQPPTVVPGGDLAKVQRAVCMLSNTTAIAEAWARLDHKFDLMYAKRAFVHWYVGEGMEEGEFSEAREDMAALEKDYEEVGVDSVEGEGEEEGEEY
Sequence of microtubule network of cultured human cells (hTERT-RPE1, 293T) (P07437 whole entry, chain 2 of 2): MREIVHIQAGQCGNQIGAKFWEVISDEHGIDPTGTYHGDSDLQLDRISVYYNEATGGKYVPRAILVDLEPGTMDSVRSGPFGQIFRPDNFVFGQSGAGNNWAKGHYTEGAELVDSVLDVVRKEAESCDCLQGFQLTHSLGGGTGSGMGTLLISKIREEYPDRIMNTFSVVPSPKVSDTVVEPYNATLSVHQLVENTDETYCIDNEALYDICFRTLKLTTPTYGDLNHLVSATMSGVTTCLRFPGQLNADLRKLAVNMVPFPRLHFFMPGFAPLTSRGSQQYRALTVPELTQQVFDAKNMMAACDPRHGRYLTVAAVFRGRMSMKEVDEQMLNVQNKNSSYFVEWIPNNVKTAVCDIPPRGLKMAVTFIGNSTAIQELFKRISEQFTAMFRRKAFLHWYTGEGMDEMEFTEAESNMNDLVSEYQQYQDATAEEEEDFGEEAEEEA
T1 sequence (P81947 whole entry, chain 1 of 2): as the sequence (P68363 whole entry, chain 1 of 2) above
T1 sequence (Q6B856 whole entry, chain 2 of 2): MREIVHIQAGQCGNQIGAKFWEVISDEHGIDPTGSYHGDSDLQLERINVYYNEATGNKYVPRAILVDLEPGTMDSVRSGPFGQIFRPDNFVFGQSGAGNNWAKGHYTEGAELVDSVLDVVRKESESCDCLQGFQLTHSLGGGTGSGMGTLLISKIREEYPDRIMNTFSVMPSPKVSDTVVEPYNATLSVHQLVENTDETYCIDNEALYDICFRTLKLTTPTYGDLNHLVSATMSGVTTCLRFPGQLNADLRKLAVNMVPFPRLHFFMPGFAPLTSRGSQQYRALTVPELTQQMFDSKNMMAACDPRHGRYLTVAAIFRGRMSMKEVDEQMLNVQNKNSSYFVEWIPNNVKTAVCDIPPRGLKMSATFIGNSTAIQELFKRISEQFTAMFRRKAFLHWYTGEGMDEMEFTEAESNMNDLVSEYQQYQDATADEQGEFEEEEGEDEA

Binder | percent of transfected cells with increased microtubule acetylation and bundling [1] [%] | percent associated with microtubules [2] [%] | percent of transfected hTERT-RPE1 cells with a fibrillar localization pattern [1] [%]
GFP fusion of CEP290 aa 580-2479 (other, The text says only 'lacking the N-terminus'; also called truncation lacking the N-terminus; C-terminal fragment of CEP290 (aa 580 to 2479); not shown: N-terminal GFP tag from pcDNA-DEST53 (Gateway)) TENISQGDRISERKLDLLSLKNMSEAQSKNEFLSRELIEKERDLERSRTVIAKFQNKLKELVEENKQLEEGMKEILQAIKEMQKDPDVKGGETSLIIPSLERLVNAIESKNAEGIFDASLHLKAQVDQLTGRNEELRQELRESRKEAINYSQQLAKANLKIDHLEKETSLLRQSEGSNVVFKGIDLPDGIAPSSASIINSQNEYLIHLLQELENKEKKLKNLEDSLEDYNRKFAVIRHQQSLLYKEYLSEKETWKTESKTIKEEKRKLEDQVQQDAIKVKEYNNLLNALQMDSDEMKKILAENSRKITVLQVNEKSLIRQYTTLVELERQLRKENEKQKNELLSMEAEVCEKIGCLQRFKEMAIFKIAALQKVVDNSVSLSELELANKQYNELTAKYRDILQKDNMLVQRTSNLEHLECENISLKEQVESINKELEITKEKLHTIEQAWEQETKLGNESSMDKAKKSITNSDIVSISKKITMLEMKELNERQRAEHCQKMYEHLRTSLKQMEERNFELETKFAELTKINLDAQKVEQMLRDELADSVSKAVSDADRQRILELEKNEMELKVEVSKLREISDIARRQVEILNAQQQSRDKEVESLRMQLLDYQAQSDEKSLIAKLHQHNVSLQLSEATALGKLESITSKLQKMEAYNLRLEQKLDEKEQALYYARLEGRNRAKHLRQTIQSLRRQFSGALPLAQQEKFSKTMIQLQNDKLKIMQEMKNSQQEHRNMENKTLEMELKLKGLEELISTLKDTKGAQKVINWHMKIEELRLQELKLNRELVKDKEEIKYLNNIISEYERTISSLEEEIVQQNKFHEERQMAWDQREVDLERQLDIFDRQQNEILNAAQKFEEATGSIPDPSLPLPNQLEIALRKIKENIRIILETRATCKSLEEKLKEKESALRLAEQNILSRDKVINELRLRLPATAEREKLIAELGRKEMEPKSHHTLKIAHQTIANMQARLNQKEEVLKKYQRLLEKAREEQREIVKKHEEDLHILHHRLELQADSSLNKFKQTAWDLMKQSPTPVPTNKHFIRLAEMEQTVAEQDDSLSSLLVKLKKVSQDLERQREITELKVKEFENIKLQLQENHEDEVKKVKAEVEDLKYLLDQSQKESQCLKSELQAQKEANSRAPTTTMRNLVERLKSQLALKEKQQKALSRALLELRAEMTAAAEERIISATSQKEAHLNVQQIVDRHTRELKTQVEDLNENLLKLKEALKTSKNRENSLTDNLNDLNNELQKKQKAYNKILREKEEIDQENDELKRQIKRLTSGLQGKPLTDNKQSLIEELQRKVKKLENQLEGKVEEVDLKPMKEKNAKEELIRWEEGKKWQAKIEGIRNKLKEKEGEVFTLTKQLNTLKDLFAKADKEKLTLQRKLKTTGMTVDQVLGIRALESEKELEELKKRNLDLENDILYMRAHQALPRDSVVEDLHLQNRYLQEKLHALEKQFSKDTYSKPSISGIESDDHCQREQELQKENLKLSSENIELKFQLEQANKDLPRLKNQVRDLKEMCEFLKKEKAEVQRKLGHVRGSGRSGKTIPELEKTIGLMKKVVEKVQRENEQLKKASGILTSEKMANIEQENEKLKAELEKLKAHLGHQLSMHYESKTKGTEKIIAENERLRKELKKETDAAEKLRIAKNNLEILNEKMTVQLEETGKRLQFAESRGPQLEGADSKSWKSIVVTRMYETKLKELETDIAKKNQSITDLKQLVKEATEREQKVNKYNEDLEQQIKILKHVPEGAETEQGLKRELQVLRLANHQLDKEKAELIHQIEANKDQSGAESTIPDADQLKEKIKDLETQLKMSDLEKQHLKEEIKKLKKELENFDPSFFEEIEDLKYNYKEEVKKNILLEEKVKKLSEQLGVELTSPVAASEEFEDEEESPVNFPIY | ~40 | < 50 | ~20
GFP fusion of CEP290 aa 1-1966 (other, The text says only 'lacking the C-terminus'; also called truncation lacking the C-terminus; not shown: N-terminal GFP tag from pcDNA-DEST53 (Gateway)) MPPNINWKEIMKVDPDDLPRQEELADNLLISLSKVEVNELKSEKQENVIHLFRITQSLMKMKAQEVELALEEVEKAGEEQAKFENQLKTKVMKLENELEMAQQSAGGRDTRFLRNEICQLEKQLEQKDRELEDMEKELEKEKKVNEQLALRNEEAENENSKLRRENKRLKKKNEQLCQDIIDYQKQIDSQKETLLSRRGEDSDYRSQLSKKNYELIQYLDEIQTLTEANEKIEVQNQEMRKNLEESVQEMEKMTDEYNRMKAIVHQTDNVIDQLKKENDHYQLQVQELTDLLKSKNEEDDPIMVAVNAKVEEWKLILSSKDDEIIEYQQMLHNLREKLKNAQLDADKSNVMALQQGIQERDSQIKMLTEQVEQYTKEMEKNTCIIEDLKNELQRNKGASTLSQQTHMKIQSTLDILKEKTKEAERTAELAEADAREKDKELVEALKRLKDYESGVYGLEDAVVEIKNCKNQIKIRDREIEILTKEINKLELKISDFLDENEALRERVGLEPKTMIDLTEFRNSKHLKQQQYRAENQILLKEIESLEEERLDLKKKIRQMAQERGKRSATSGLTTEDLNLTENISQGDRISERKLDLLSLKNMSEAQSKNEFLSRELIEKERDLERSRTVIAKFQNKLKELVEENKQLEEGMKEILQAIKEMQKDPDVKGGETSLIIPSLERLVNAIESKNAEGIFDASLHLKAQVDQLTGRNEELRQELRESRKEAINYSQQLAKANLKIDHLEKETSLLRQSEGSNVVFKGIDLPDGIAPSSASIINSQNEYLIHLLQELENKEKKLKNLEDSLEDYNRKFAVIRHQQSLLYKEYLSEKETWKTESKTIKEEKRKLEDQVQQDAIKVKEYNNLLNALQMDSDEMKKILAENSRKITVLQVNEKSLIRQYTTLVELERQLRKENEKQKNELLSMEAEVCEKIGCLQRFKEMAIFKIAALQKVVDNSVSLSELELANKQYNELTAKYRDILQKDNMLVQRTSNLEHLECENISLKEQVESINKELEITKEKLHTIEQAWEQETKLGNESSMDKAKKSITNSDIVSISKKITMLEMKELNERQRAEHCQKMYEHLRTSLKQMEERNFELETKFAELTKINLDAQKVEQMLRDELADSVSKAVSDADRQRILELEKNEMELKVEVSKLREISDIARRQVEILNAQQQSRDKEVESLRMQLLDYQAQSDEKSLIAKLHQHNVSLQLSEATALGKLESITSKLQKMEAYNLRLEQKLDEKEQALYYARLEGRNRAKHLRQTIQSLRRQFSGALPLAQQEKFSKTMIQLQNDKLKIMQEMKNSQQEHRNMENKTLEMELKLKGLEELISTLKDTKGAQKVINWHMKIEELRLQELKLNRELVKDKEEIKYLNNIISEYERTISSLEEEIVQQNKFHEERQMAWDQREVDLERQLDIFDRQQNEILNAAQKFEEATGSIPDPSLPLPNQLEIALRKIKENIRIILETRATCKSLEEKLKEKESALRLAEQNILSRDKVINELRLRLPATAEREKLIAELGRKEMEPKSHHTLKIAHQTIANMQARLNQKEEVLKKYQRLLEKAREEQREIVKKHEEDLHILHHRLELQADSSLNKFKQTAWDLMKQSPTPVPTNKHFIRLAEMEQTVAEQDDSLSSLLVKLKKVSQDLERQREITELKVKEFENIKLQLQENHEDEVKKVKAEVEDLKYLLDQSQKESQCLKSELQAQKEANSRAPTTTMRNLVERLKSQLALKEKQQKALSRALLELRAEMTAAAEERIISATSQKEAHLNVQQIVDRHTRELKTQVEDLNENLLKLKEALKTSKNRENSLTDNLNDLNNELQKKQKAYNKILREKEEIDQENDELKRQIKRLTSGLQGKPLTDNKQSLIEELQRKVKKLENQLEGKVEEVDLKPMKEKNAKEELIRWEEGKKWQAKIEGIRNKLKEKEGEVFTLTKQLNTLKDLFAKADKEKLTLQRKLKT | ~40 | < 50 | ~60

The remaining lines, values ahead:

percent of transfected cells with increased microtubule acetylation and bundling [1] [%] | percent associated with microtubules [2] [%] | percent of transfected hTERT-RPE1 cells with a fibrillar localization pattern [1] [%] | Binder
~75 | ~100 |  | GFP fusion of CEP290 aa 1695-1966 (region M) (other, Also a construct without both termini; also called CEP290 region M alone; truncation M (GFP fusion); not shown: N-terminal GFP tag from pcDNA-DEST53 (Gateway)) DQSQKESQCLKSELQAQKEANSRAPTTTMRNLVERLKSQLALKEKQQKALSRALLELRAEMTAAAEERIISATSQKEAHLNVQQIVDRHTRELKTQVEDLNENLLKLKEALKTSKNRENSLTDNLNDLNNELQKKQKAYNKILREKEEIDQENDELKRQIKRLTSGLQGKPLTDNKQSLIEELQRKVKKLENQLEGKVEEVDLKPMKEKNAKEELIRWEEGKKWQAKIEGIRNKLKEKEGEVFTLTKQLNTLKDLFAKADKEKLTLQRKLKT
~75 | ~100 | ~80 | GFP fusion of CEP290 aa 580-1966 (other, The text says only 'lacking both termini'; also called truncation lacking both termini; construct lacking both the N- and C-termini; not shown: N-terminal GFP tag from pcDNA-DEST53 (Gateway)) TENISQGDRISERKLDLLSLKNMSEAQSKNEFLSRELIEKERDLERSRTVIAKFQNKLKELVEENKQLEEGMKEILQAIKEMQKDPDVKGGETSLIIPSLERLVNAIESKNAEGIFDASLHLKAQVDQLTGRNEELRQELRESRKEAINYSQQLAKANLKIDHLEKETSLLRQSEGSNVVFKGIDLPDGIAPSSASIINSQNEYLIHLLQELENKEKKLKNLEDSLEDYNRKFAVIRHQQSLLYKEYLSEKETWKTESKTIKEEKRKLEDQVQQDAIKVKEYNNLLNALQMDSDEMKKILAENSRKITVLQVNEKSLIRQYTTLVELERQLRKENEKQKNELLSMEAEVCEKIGCLQRFKEMAIFKIAALQKVVDNSVSLSELELANKQYNELTAKYRDILQKDNMLVQRTSNLEHLECENISLKEQVESINKELEITKEKLHTIEQAWEQETKLGNESSMDKAKKSITNSDIVSISKKITMLEMKELNERQRAEHCQKMYEHLRTSLKQMEERNFELETKFAELTKINLDAQKVEQMLRDELADSVSKAVSDADRQRILELEKNEMELKVEVSKLREISDIARRQVEILNAQQQSRDKEVESLRMQLLDYQAQSDEKSLIAKLHQHNVSLQLSEATALGKLESITSKLQKMEAYNLRLEQKLDEKEQALYYARLEGRNRAKHLRQTIQSLRRQFSGALPLAQQEKFSKTMIQLQNDKLKIMQEMKNSQQEHRNMENKTLEMELKLKGLEELISTLKDTKGAQKVINWHMKIEELRLQELKLNRELVKDKEEIKYLNNIISEYERTISSLEEEIVQQNKFHEERQMAWDQREVDLERQLDIFDRQQNEILNAAQKFEEATGSIPDPSLPLPNQLEIALRKIKENIRIILETRATCKSLEEKLKEKESALRLAEQNILSRDKVINELRLRLPATAEREKLIAELGRKEMEPKSHHTLKIAHQTIANMQARLNQKEEVLKKYQRLLEKAREEQREIVKKHEEDLHILHHRLELQADSSLNKFKQTAWDLMKQSPTPVPTNKHFIRLAEMEQTVAEQDDSLSSLLVKLKKVSQDLERQREITELKVKEFENIKLQLQENHEDEVKKVKAEVEDLKYLLDQSQKESQCLKSELQAQKEANSRAPTTTMRNLVERLKSQLALKEKQQKALSRALLELRAEMTAAAEERIISATSQKEAHLNVQQIVDRHTRELKTQVEDLNENLLKLKEALKTSKNRENSLTDNLNDLNNELQKKQKAYNKILREKEEIDQENDELKRQIKRLTSGLQGKPLTDNKQSLIEELQRKVKKLENQLEGKVEEVDLKPMKEKNAKEELIRWEEGKKWQAKIEGIRNKLKEKEGEVFTLTKQLNTLKDLFAKADKEKLTLQRKLKT
